Test results as given in the supplement of paper PMC9112550, “Optimization of the antimicrobial peptide Bac7 by deep mutational scanning” (BMC Biology, 2022).

Test system: Escherichia coli TOP10
Experiment: shrunken log2 fold change of peptide-encoding DNA abundance (4.5 h post-induction vs induction); higher = less antimicrobial activity (less host growth inhibition)
Details: time post-induction: 4.5 h; library: site-saturation at positions 5, 18, 19, 20
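Further: peptides expressed intracellularly from a pBAD plasmid library in pooled LB shake-flask culture, induced with 0.3% L-arabinose, DNA abundance read by NGS, three biological replicates, DESeq2 with apeglm shrinkage.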

| Sequence | shrunken log2 fold change |
| --- | --- |
| RRIRQRPPRLPRPRPRPVSCPRP | 0.0853 |
| RRIRWRPPRLPRPRPRPCPHPRP | -0.00679 |
| RRIRVRPPRLPRPRPRPDAVPRP | 0.141 |
| RRIRERPPRLPRPRPRPPMWPRP | 0.245 |
| RRIRARPPRLPRPRPRPWGGPRP | 0.605 |
| RRIRYRPPRLPRPRPRPKMSPRP | -0.562 |
| RRIRERPPRLPRPRPRPMPIPRP | -0.18 |
| RRIRSRPPRLPRPRPRPICNPRP | -0.0128 |
| RRIRRRPPRLPRPRPRPYRDPRP | -0.111 |
| RRIRMRPPRLPRPRPRPREEPRP | 1.41 |
| RRIRFRPPRLPRPRPRPRQPPRP | 0.68 |
| RRIRERPPRLPRPRPRPNDVPRP | 0.0254 |
| RRIRWRPPRLPRPRPRPPWPPRP | 0.503 |
| RRIRSRPPRLPRPRPRPTQTPRP | 1.09 |
| RRIRQRPPRLPRPRPRPNRDPRP | -0.178 |
| RRIRARPPRLPRPRPRPMCSPRP | 0.334 |
| RRIRVRPPRLPRPRPRPEETPRP | 0.00893 |
| RRIRDRPPRLPRPRPRPDSRPRP | -0.00898 |
| RRIRQRPPRLPRPRPRPMTKPRP | -0.0865 |
| RRIRTRPPRLPRPRPRPINPPRP | -0.0274 |
| RRIRQRPPRLPRPRPRPGCQPRP | -0.103 |
| RRIRRRPPRLPRPRPRPSTGPRP | 0.112 |
| RRIRPRPPRLPRPRPRPGDCPRP | 0.482 |
| RRIRCRPPRLPRPRPRPVFQPRP | -0.0498 |
| RRIRLRPPRLPRPRPRPFCRPRP | 0.0702 |

| Sequence | shrunken log2 fold change |
| --- | --- |
| RRIRLRPPRLPRPRPRPEQTPRP | -0.000687 |
| RRIRYRPPRLPRPRPRPDHRPRP | -0.227 |
| RRIRARPPRLPRPRPRPWTTPRP | 0.0452 |
| RRIRWRPPRLPRPRPRPGVMPRP | 0.477 |
| RRIRTRPPRLPRPRPRPESGPRP | 0.366 |
| RRIRLRPPRLPRPRPRPWATPRP | -0.0496 |
| RRIRTRPPRLPRPRPRPKMIPRP | 0.013 |
| RRIRCRPPRLPRPRPRPSTMPRP | -0.509 |
| RRIRIRPPRLPRPRPRPGYEPRP | -0.237 |
| RRIRARPPRLPRPRPRPMNQPRP | -0.135 |
| RRIRLRPPRLPRPRPRPIIKPRP | -0.527 |
| RRIRDRPPRLPRPRPRPAETPRP | 0.0806 |
| RRIRPRPPRLPRPRPRPWLIPRP | -0.31 |
| RRIRLRPPRLPRPRPRPMVAPRP | -0.147 |
| RRIRVRPPRLPRPRPRPLVTPRP | -0.348 |
| RRIRSRPPRLPRPRPRPCWHPRP | -0.245 |
| RRIRCRPPRLPRPRPRPRMMPRP | -0.11 |
| RRIRNRPPRLPRPRPRPGCRPRP | 0.123 |
| RRIRDRPPRLPRPRPRPRHGPRP | -0.0452 |
| RRIRIRPPRLPRPRPRPEDKPRP | -0.401 |
| RRIRSRPPRLPRPRPRPASDPRP | 0.407 |
| RRIRDRPPRLPRPRPRPKNMPRP | -0.482 |
| RRIRCRPPRLPRPRPRPMRYPRP | 0.0209 |
| RRIRGRPPRLPRPRPRPGGCPRP | 1.19 |
| RRIRRRPPRLPRPRPRPRHMPRP | -0.0552 |

| Sequence | shrunken log2 fold change |
| --- | --- |
| RRIRGRPPRLPRPRPRPNLPPRP | 0.133 |
| RRIRARPPRLPRPRPRPETIPRP | 0.541 |
| RRIRNRPPRLPRPRPRPLWFPRP | 0.0185 |
| RRIRWRPPRLPRPRPRPSCEPRP | 0.19 |
| RRIRMRPPRLPRPRPRPQNAPRP | 0.0821 |
| RRIRARPPRLPRPRPRPERPPRP | 0.556 |
| RRIRWRPPRLPRPRPRPPFAPRP | 0.544 |
| RRIRQRPPRLPRPRPRPTSPPRP | 0.218 |
| RRIRVRPPRLPRPRPRPIQAPRP | -0.0344 |
| RRIRYRPPRLPRPRPRPVHFPRP | -0.451 |
| RRIRSRPPRLPRPRPRPSQCPRP | -0.265 |
| RRIRVRPPRLPRPRPRPKIDPRP | 0.124 |
| RRIRKRPPRLPRPRPRPYTMPRP | -0.53 |
| RRIRARPPRLPRPRPRPNRNPRP | -0.266 |
| RRIRMRPPRLPRPRPRPMGVPRP | 0.06 |
| RRIRARPPRLPRPRPRPGKLPRP | 0.149 |
| RRIRSRPPRLPRPRPRPEYFPRP | -1.04 |
| RRIRLRPPRLPRPRPRPEMCPRP | 0.0636 |
| RRIRARPPRLPRPRPRPNFNPRP | -0.0686 |
| RRIRMRPPRLPRPRPRPQWTPRP | 0.0242 |
| RRIRWRPPRLPRPRPRPHRVPRP | -0.0781 |
| RRIRKRPPRLPRPRPRPHDDPRP | 0.171 |
| RRIRQRPPRLPRPRPRPQTSPRP | 0.219 |
| RRIRYRPPRLPRPRPRPIDWPRP | 0.0205 |
| RRIRRRPPRLPRPRPRPTSSPRP | 0.04 |

| Sequence | shrunken log2 fold change |
| --- | --- |
| RRIRVRPPRLPRPRPRPIPEPRP | -0.0974 |
| RRIRKRPPRLPRPRPRPSEYPRP | -0.026 |
| RRIRHRPPRLPRPRPRPIYQPRP | -0.316 |
| RRIRCRPPRLPRPRPRPEKCPRP | 0.209 |
| RRIRGRPPRLPRPRPRPRCTPRP | 0.892 |
| RRIRIRPPRLPRPRPRPQAHPRP | -0.261 |
| RRIRARPPRLPRPRPRPRIRPRP | 0.322 |
| RRIRTRPPRLPRPRPRPIQDPRP | -0.867 |
| RRIRWRPPRLPRPRPRPTRDPRP | 0.0468 |
| RRIRRRPPRLPRPRPRPEGEPRP | 1.17 |
| RRIRMRPPRLPRPRPRPENSPRP | 2.07 |
| RRIRDRPPRLPRPRPRPEHFPRP | -0.138 |
| RRIRSRPPRLPRPRPRPHGSPRP | -0.0567 |
| RRIRDRPPRLPRPRPRPHCTPRP | -0.0502 |
| RRIRFRPPRLPRPRPRPCTGPRP | 0.0368 |
| RRIRDRPPRLPRPRPRPHRLPRP | 0.033 |
| RRIRERPPRLPRPRPRPMGFPRP | 0.0499 |
| RRIRRRPPRLPRPRPRPSETPRP | 0.493 |
| RRIRSRPPRLPRPRPRPTMSPRP | -0.0133 |
| RRIRPRPPRLPRPRPRPTEKPRP | 0.0615 |
| RRIRHRPPRLPRPRPRPANEPRP | 0.0508 |
| RRIRRRPPRLPRPRPRPPMAPRP | 0.487 |
| RRIRQRPPRLPRPRPRPNAGPRP | 0.0853 |
| RRIRQRPPRLPRPRPRPKWDPRP | -0.0672 |
| RRIRFRPPRLPRPRPRPPRCPRP | 0.612 |

| Sequence | shrunken log2 fold change |
| --- | --- |
| RRIRERPPRLPRPRPRPLWFPRP | 0.174 |
| RRIRYRPPRLPRPRPRPGNLPRP | 0.0185 |
| RRIRPRPPRLPRPRPRPCPRPRP | 0.0438 |
| RRIRIRPPRLPRPRPRPRPGPRP | 0.618 |
| RRIRVRPPRLPRPRPRPQFDPRP | -0.00843 |
| RRIRDRPPRLPRPRPRPTCYPRP | 0.289 |
| RRIRNRPPRLPRPRPRPQGRPRP | -0.0865 |
| RRIRNRPPRLPRPRPRPHVAPRP | -0.0498 |
| RRIRHRPPRLPRPRPRPPQIPRP | -0.0667 |
| RRIRVRPPRLPRPRPRPRQKPRP | 0.212 |
| RRIRLRPPRLPRPRPRPVIHPRP | -1.64 |
| RRIRGRPPRLPRPRPRPRWFPRP | 0.355 |
| RRIRCRPPRLPRPRPRPSRFPRP | -0.0991 |
| RRIRNRPPRLPRPRPRPRHEPRP | -0.0217 |
| RRIRDRPPRLPRPRPRPNHDPRP | -0.312 |
| RRIRTRPPRLPRPRPRPYQYPRP | -0.546 |
| RRIRQRPPRLPRPRPRPIGIPRP | -0.245 |
| RRIRARPPRLPRPRPRPSPQPRP | 0.554 |
| RRIRWRPPRLPRPRPRPPEIPRP | -0.0659 |
| RRIRRRPPRLPRPRPRPIWAPRP | 0.0342 |
| RRIRPRPPRLPRPRPRPLCAPRP | 0.119 |
| RRIRLRPPRLPRPRPRPAEEPRP | 0.133 |
| RRIRHRPPRLPRPRPRPSFYPRP | -1.09 |
| RRIRCRPPRLPRPRPRPFDFPRP | -0.342 |
| RRIRWRPPRLPRPRPRPVGLPRP | 0.568 |
